# B1: protein variant (11), Split CH2 bivalent bispecific antibody (bispecific antibody, human IgG4 S228P, kappa)
# heavy: EVQLKESGPGLVAPGGSLSITCTVSGFSLTDSSINWVRQPPGKGLEWLGMIWGDGRIDYADALKSRLSISKDSSKSQVFLEMTSLRTDDTATYYCARDGYFPYAMDFWGQGTSVTVSSASTKGPSVFPLAPCSRSTSESTAALGCLVKDYFPEPVTVSWNSGALTSGVHTFPAVLQSSGLYSLSSVVTVPSSSLGTKTYTCNVDHKPSNTKVDKRVESKYGPPCPPCPAPEFEGGPSVFLFPPKPKDTLMISRTPEVTCVVVDVSQEDPEVQFNWYVDGVEVHNAKTKPREEQFNSTYRVVSVLTVLHQDWLNGKEYKCKVSNKGLPSSIEKTISKAKGQPREPQVCTLPPSRDELTKNQVSLSCAVKGFYPSDIAVEWESNGQPENNYKTTPPVLDSDGSFFLVSKLTVDKSRWQQGNVFSCSVMHEALHNRFTQKSLSLSPG
# light: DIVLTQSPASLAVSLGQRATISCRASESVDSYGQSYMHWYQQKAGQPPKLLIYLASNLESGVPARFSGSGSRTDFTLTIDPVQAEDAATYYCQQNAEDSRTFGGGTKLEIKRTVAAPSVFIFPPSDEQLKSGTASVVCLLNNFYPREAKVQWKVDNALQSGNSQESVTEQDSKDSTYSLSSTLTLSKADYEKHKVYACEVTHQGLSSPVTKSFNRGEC
# chain 1: QVQLQQSGPELVKPGASVKISCKASGYSFTSYWIHWIKQRPGQGLEWIGMIDPSDGETRLNQRFQGRATLTVDESTSTAYMQLRSPTSEDSAVYYCTRLKEYGNYDSFYFDVWGAGTLVTVSSGGGGGSGGGGGSAKTKPREEQYNSTYRVVSVLTVLHQDWLNGKEYKCKVSNKALPAPIEKTISKAKGQPREGGGSGSAESKYGPPCPPCPAPEFEGGPSVFLFPPKPKDTLMISRTPEVTCVVVDVSQEDPEVQFNWYVDGVEVHNAKTKPREEQFNSTYRVVSVLTVLHQDWLNGKEYKCKVSNKGLPSSIEKTISKAKGQPREPQVYTLPPCRDELTKNQVSLWCLVKGFYPSDIAVEWESNGQPENNYKTTPPVLDSDGSFFLYSKLTVDKSRWQQGNVFSCSVMHEALHNHYTQKSLSLSPG
# chain 2: DIQMTQSPASLSVSVGDTITLTCHASQNIDVWLSWFQQKPGNIPKLLIYKASNLHTGVPSRFSGSGSGTGFTLTISSLQPEDIATYYCQQAHSYPFTFGGGTKLEIKGGGGPSVFLFPPKPKDTLMISRTPEVTCVVVDVSHEDPEVKFNWYVDGVEVHN
# notes: Four chains; on one arm CH1 and CL are replaced by the split CH2 domain; heavy chains heterodimerize by knob-into-hole mutations
# B2: protein variant (12), Split CH2 bivalent bispecific antibody (bispecific antibody, human IgG4 S228P, kappa)
# heavy: B1 heavy
# light: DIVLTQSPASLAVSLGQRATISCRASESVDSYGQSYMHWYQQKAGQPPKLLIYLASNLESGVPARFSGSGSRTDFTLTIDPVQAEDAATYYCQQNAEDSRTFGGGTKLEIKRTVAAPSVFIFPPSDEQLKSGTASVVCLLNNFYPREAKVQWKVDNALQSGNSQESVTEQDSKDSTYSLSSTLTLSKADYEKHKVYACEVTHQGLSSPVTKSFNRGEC
# chain 1: DIQMTQSPASLSVSVGDTITLTCHASQNIDVWLSWFQQKPGNIPKLLIYKASNLHTGVPSRFSGSGSGTGFTLTISSLQPEDIATYYCQQAHSYPFTFGGGTKLEIKGGGGGSGGGGGSAKTKPREEQYNSTYRVVSVLTVLHQDWLNGKEYKCKVSNKALPAPIEKTISKAKGQPREGGGSGSAESKYGPPCPPCPAPEFEGGPSVFLFPPKPKDTLMISRTPEVTCVVVDVSQEDPEVQFNWYVDGVEVHNAKTKPREEQFNSTYRVVSVLTVLHQDWLNGKEYKCKVSNKGLPSSIEKTISKAKGQPREPQVYTLPPCRDELTKNQVSLWCLVKGFYPSDIAVEWESNGQPENNYKTTPPVLDSDGSFFLYSKLTVDKSRWQQGNVFSCSVMHEALHNHYTQKSLSLSPG
# chain 2: QVQLQQSGPELVKPGASVKISCKASGYSFTSYWIHWIKQRPGQGLEWIGMIDPSDGETRLNQRFQGRATLTVDESTSTAYMQLRSPTSEDSAVYYCTRLKEYGNYDSFYFDVWGAGTLVTVSSGGGGPSVFLFPPKPKDTLMISRTPEVTCVVVDVSHEDPEVKFNWYVDGVEVHN
# notes: as for B1
# B3: protein variant (3), CODV-Fab Split CH2 (anti-IL4/anti-IL13) (bispecific antibody, IgG1)
# chain 1: DIVLTQSPASLAVSLGQRATISCRASESVDSYGQSYMHWYQQKAGQPPKLLIYLASNLESGVPARFSGSGSRTDFTLTIDPVQAEDAATYYCQQNAEDSRTFGGGTKLEIKGQPKAAPSDIQMTQSPASLSVSVGDTITLTCHASQNIDVWLSWFQQKPGNIPKLLIYKASNLHTGVPSRFSGSGSGTGFTLTISSLQPEDIATYYCQQAHSYPFTFGGGTKLEIKTKGPSVFRTVAAPSVFIFPPSDEQLKSGTASVVCLLNNFYPREAKVQWKVDNALQSGNSQESVTEQDSKDSTYSLSSTLTLSKADYEKHKVYACEVTHQGLSSPVTKSFNRGECGGPSVFLFPPKPKDTLMISRTPEVTCVVVDVSHEDPEVKFNWYVDGVEVHN
# chain 2: QVQLQQSGPELVKPGASVKISCKASGYSFTSYWIHWIKQRPGQGLEWIGMIDPSDGETRLNQRFQGRATLTVDESTSTAYMQLRSPTSEDSAVYYCTRLKEYGNYDSFYFDVWGAGTLVTVSSSEVQLKESGPGLVAPGGSLSITCTVSGFSLTDSSINWVRQPPGKGLEWLGMIWGDGRIDYADALKSRLSISKDSSKSQVFLEMTSLRTDDTATYYCARDGYFPYAMDFWGQGTSVTVSSASTKGPSVFPLAPSSKSTSGGTAALGCLVKDYFPEPVTVSWNSGALTSGVHTFPAVLQSSGLYSLSSVVTVPSSSLGTQTYICNVNHKPSNTKVDKKVEPKSCDKGGGAKTKPREEQYNSTYRVVSVLTVLHQDWLNGKEYKCKVSNKALPAPIEKTISKAKGQPREHHHHHH
# notes: Fab-like cross-over format with IgG1 split CH2 domain
# B4: protein variant (2), DVD-Fab Split CH2 (anti-IL4/anti-IL13) (bispecific antibody, IgG1)
# chain 1: DIVLTQSPASLAVSLGQRATISCRASESVDSYGQSYMHWYQQKAGQPPKLLIYLASNLESGVPARFSGSGSRTDFTLTIDPVQAEDAATYYCQQNAEDSRTFGGGTKLEIKGGGGSGGGGSDIQMTQSPASLSVSVGDTITLTCHASQNIDVWLSWFQQKPGNIPKLLIYKASNLHTGVPSRFSGSGSGTGFTLTISSLQPEDIATYYCQQAHSYPFTFGGGTKLEIKRTVAAPSVFIFPPSDEQLKSGTASVVCLLNNFYPREAKVQWKVDNALQSGNSQESVTEQDSKDSTYSLSSTLTLSKADYEKHKVYACEVTHQGLSSPVTKSFNRGECGGPSVFLFPPKPKDTLMISRTPEVTCVVVDVSHEDPEVKFNWYVDGVEVHN
# chain 2: EVQLKESGPGLVAPGGSLSITCTVSGFSLTDSSINWVRQPPGKGLEWLGMIWGDGRIDYADALKSRLSISKDSSKSQVFLEMTSLRTDDTATYYCARDGYFPYAMDFWGQGTSVTVSSGGGGSGGGGSQVQLQQSGPELVKPGASVKISCKASGYSFTSYWIHWIKQRPGQGLEWIGMIDPSDGETRLNQRFQGRATLTVDESTSTAYMQLRSPTSEDSAVYYCTRLKEYGNYDSFYFDVWGAGTLVTVSSASTKGPSVFPLAPSSKSTSGGTAALGCLVKDYFPEPVTVSWNSGALTSGVHTFPAVLQSSGLYSLSSVVTVPSSSLGTQTYICNVNHKPSNTKVDKKVEPKSCDKGGGAKTKPREEQYNSTYRVVSVLTVLHQDWLNGKEYKCKVSNKALPAPIEKTISKAKGQPREHHHHHH
# notes: Fab-like format with IgG1 split CH2 domain
# Key:
# [1] = target: T1, human IL4 (IL004, Millipore) (human, UniProt P05112 25-153); assay: SPR (Biacore 3000), construct captured, IL4 as analyte; summary table
# T1 construct: Bought protein, used as analyte in SPR; also called interleukin IL4
# T1 sequence (looked up): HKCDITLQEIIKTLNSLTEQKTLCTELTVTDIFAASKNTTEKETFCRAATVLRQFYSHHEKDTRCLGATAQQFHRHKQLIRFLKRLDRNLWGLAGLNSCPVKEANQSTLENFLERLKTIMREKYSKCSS
# Protocol: (§1) Binding of antigens to the antibody constructs was measured using surface plasmon resonance (SPR) on a BIAcore 3000 instrument (GE Healthcare) with HBS-EP buffer (GE Healthcare). As antigens human IL4 (IL004, Millipore) and human IL13 (IL012, Millipore) were used. The capture antibody (human antibody capture kit, His capture kit, Fab capture kit, GE Life Sciences) was immobilized via primary amine groups (11000 RU) on a research grade CMS chip (GE Life Sciences) using standard procedures. […] The antigens human IL4 and human IL13 were used as analytes and injected for 240 sec with a dissociation time of 300 sec at a flow rate of 30 μL/min. IL4 and IL13 were used in a dilution series of 0.1 nM to 3 nM and 0.8 nM to 25 nM, respectively. Chip surfaces were regenerated with 2 min injects of the regeneration buffer provided with the capture kit. Sensorgrams were double referenced with a blank chip surface and HBS-EP buffer blanks. Recombinant human neonatal Fc-receptor (FcRn) protein was immobilized via primary amine groups (200 RU) in the sample flow cell compartment of a research grade CMS chip (GE Life Sciences) using standard procedures. The reference flow cell compartment was activated and deactivated without FcRn immobilization to generate a blank chip surface. For the analysis an assay buffer with pH 6.0 was used (150 mM NaCl, 20 mM Na-phosphate, 0.05% surfactant P20, pH6.0). The antibody was used as analyte at 800 nM dilution in assay buffer and injected over reference and sample flow cells for 240 sec with a dissociation time of 300 sec at a flow rate of 30 μL/min. Chip surfaces were regenerated with 2 min injects of HBS-EP buffer at 30 μl/min. Sensorgrams were double referenced with a the blank chip surface and HBS-EP buffer blanks. All data analysis was done using the BIAevaluation software v4.1.
# [2] = target: T1, human IL4 (IL004, Millipore); assay: SPR (Biacore), variant captured with human antibody capture kit, IL4 as analyte
# Protocol: as §1
# [3] = target: T1, human IL4 (IL004, Millipore); assay: SPR (Biacore), variant captured with Fab-capture kit, IL4 as analyte
# Protocol: as §1
# [4] = target: T1, human IL4 (IL004, Millipore); assay: SPR (Biacore), variant captured with His-capture kit, IL4 as analyte
# Protocol: as §1
binder,measurement,setting,value
B1,Kd,[1],1.3 pM
same,Kd,[2],1.3 pM
same,koff,[2],8.91e-05 s⁻¹
same,kon,[2],6.84e+07 M⁻¹ s⁻¹
B2,Kd,[1],0.922 pM
same,Kd,[2],0.922 pM
B3,Kd,[1],5.48 pM
same,Ka,[3],1.83e+11 M⁻¹
same,Kd,[3],5.48 pM
same,koff,[3],0.000452 s⁻¹
same,kon,[3],8.26e+07 M⁻¹ s⁻¹
B4,Kd,[1],30 pM
same,Ka,[3],5.73e+10 M⁻¹
same,Kd,[3],17.5 pM
same,koff,[3],0.000259 s⁻¹
same,kon,[3],1.48e+07 M⁻¹ s⁻¹
same,Ka,[4],3.33e+10 M⁻¹
same,Kd,[4],30 pM
same,koff,[4],0.000426 s⁻¹
same,kon,[4],1.42e+07 M⁻¹ s⁻¹

# Source: US20230103563A1 (Sanofi, published 2023)
